According to US6127119, “Nucleic acid ligands of tissue target” (NeXstar Pharmaceuticals, Inc.):

Biological target: Fibrinogen (Homo sapiens, UniProt P02671-2;P02675;P02679-2 P02671-2:20-644,P02675:31-491,P02679-2:27-437)
Assay: filter; low class; printed l mM, probably uM; clone printed FCNB
Settings: chain copies: 2

Sequence of Fibrinogen (P02671 other isoform, or with tags, fused parts or gaps, chain 1 of 3): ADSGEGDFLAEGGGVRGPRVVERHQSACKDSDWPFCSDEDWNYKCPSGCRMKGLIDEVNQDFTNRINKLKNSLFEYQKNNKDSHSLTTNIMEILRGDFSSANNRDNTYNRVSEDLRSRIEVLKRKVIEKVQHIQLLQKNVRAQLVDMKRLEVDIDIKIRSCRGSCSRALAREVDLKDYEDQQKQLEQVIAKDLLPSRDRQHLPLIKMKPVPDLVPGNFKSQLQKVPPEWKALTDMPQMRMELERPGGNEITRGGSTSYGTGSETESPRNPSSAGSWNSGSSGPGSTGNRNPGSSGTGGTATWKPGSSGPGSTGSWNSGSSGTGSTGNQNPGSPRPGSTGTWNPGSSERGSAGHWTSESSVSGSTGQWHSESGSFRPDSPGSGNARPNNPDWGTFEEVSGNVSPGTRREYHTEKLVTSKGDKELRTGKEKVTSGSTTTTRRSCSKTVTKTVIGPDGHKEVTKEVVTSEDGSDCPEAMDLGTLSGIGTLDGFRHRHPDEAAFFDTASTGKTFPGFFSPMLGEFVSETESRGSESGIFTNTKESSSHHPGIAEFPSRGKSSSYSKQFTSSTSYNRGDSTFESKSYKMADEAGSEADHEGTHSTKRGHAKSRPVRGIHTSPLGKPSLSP
Sequence of Fibrinogen (P02675 31-491, chain 2 of 3): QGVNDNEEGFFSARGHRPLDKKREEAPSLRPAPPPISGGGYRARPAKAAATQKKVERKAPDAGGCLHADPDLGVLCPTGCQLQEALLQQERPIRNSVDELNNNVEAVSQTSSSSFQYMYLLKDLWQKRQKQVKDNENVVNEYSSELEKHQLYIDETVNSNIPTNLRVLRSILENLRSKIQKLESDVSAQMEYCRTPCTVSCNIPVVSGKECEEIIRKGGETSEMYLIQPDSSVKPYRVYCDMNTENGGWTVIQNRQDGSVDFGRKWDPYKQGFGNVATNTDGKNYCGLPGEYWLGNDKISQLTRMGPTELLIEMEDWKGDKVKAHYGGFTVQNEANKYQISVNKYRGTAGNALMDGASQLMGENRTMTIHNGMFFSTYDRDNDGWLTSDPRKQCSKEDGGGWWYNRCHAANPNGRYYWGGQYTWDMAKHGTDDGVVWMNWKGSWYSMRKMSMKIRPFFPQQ
Sequence of Fibrinogen (P02679 other isoform, or with tags, fused parts or gaps, chain 3 of 3): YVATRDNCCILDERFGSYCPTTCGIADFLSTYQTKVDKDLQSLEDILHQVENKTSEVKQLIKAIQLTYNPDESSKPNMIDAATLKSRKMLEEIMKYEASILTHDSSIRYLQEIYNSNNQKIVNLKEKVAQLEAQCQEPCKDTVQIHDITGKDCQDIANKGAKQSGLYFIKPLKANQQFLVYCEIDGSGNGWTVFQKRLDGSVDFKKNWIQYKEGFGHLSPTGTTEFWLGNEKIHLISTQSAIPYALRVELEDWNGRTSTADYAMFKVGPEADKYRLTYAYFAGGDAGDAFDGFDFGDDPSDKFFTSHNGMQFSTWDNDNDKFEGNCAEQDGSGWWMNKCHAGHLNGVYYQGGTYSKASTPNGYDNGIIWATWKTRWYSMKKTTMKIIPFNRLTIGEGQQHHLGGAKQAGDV

B1: FCN8 (ssRNA)
RNA: GGGAGAUAAGAAUAAACGCUCAAUAGCAAGUCCCACAUCCCAGACGGGCUAAAAAGAGGUGGAUUCGACAGGAGGCUCACAACAGGC
modifications: 2'-F pyrimidines
With B1 as the binder, how does the Kd read?
Its Kd is greater than 1000 nM.
